# Substitutions are numbered along the chain they refer to.
# T1: ARHGEF11, O15085
# T1 sequence (O15085 42-136, limits assumed, looked up): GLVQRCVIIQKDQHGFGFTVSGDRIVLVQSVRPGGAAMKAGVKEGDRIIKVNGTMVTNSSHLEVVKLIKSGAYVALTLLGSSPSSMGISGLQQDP
# T2: DFNB31_1, Q9P202
# T2 sequence (Q9P202 135-233, limits assumed, looked up): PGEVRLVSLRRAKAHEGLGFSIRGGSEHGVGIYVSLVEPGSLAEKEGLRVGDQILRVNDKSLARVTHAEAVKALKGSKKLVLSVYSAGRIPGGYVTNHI
# T3: DFNB31_3, Q9P202
# T3 sequence (Q9P202 811-907, limits assumed, looked up): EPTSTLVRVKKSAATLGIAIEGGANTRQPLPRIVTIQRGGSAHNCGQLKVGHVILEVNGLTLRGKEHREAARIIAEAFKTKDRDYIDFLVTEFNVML
# T4: DLG3_3, Q92796
# T4 sequence (Q92796 374-475, limits assumed, looked up): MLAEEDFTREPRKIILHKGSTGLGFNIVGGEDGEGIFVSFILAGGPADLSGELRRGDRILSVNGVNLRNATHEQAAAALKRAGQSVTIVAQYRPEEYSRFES
# T5: GRIP1_3, Q9Y3R0
# T5 sequence (Q9Y3R0 247-346, limits assumed, looked up): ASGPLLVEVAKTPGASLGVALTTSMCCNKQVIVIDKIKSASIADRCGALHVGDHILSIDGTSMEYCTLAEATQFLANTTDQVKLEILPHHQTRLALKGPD
# T6: GRIP1_4, Q9Y3R0
# T6 sequence (Q9Y3R0 467-571, limits assumed, looked up): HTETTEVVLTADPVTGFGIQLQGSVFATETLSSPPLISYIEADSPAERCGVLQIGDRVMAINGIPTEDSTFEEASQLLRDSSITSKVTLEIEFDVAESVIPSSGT
# T7: HTRA3, P83110
# T7 sequence (P83110 354-453, limits assumed, looked up): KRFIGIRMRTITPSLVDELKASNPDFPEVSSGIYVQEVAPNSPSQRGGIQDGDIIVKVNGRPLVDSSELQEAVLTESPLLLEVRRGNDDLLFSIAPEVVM
# T8: LIN7B, Q9HAP6
# T8 sequence (Q9HAP6 88-185, limits assumed, looked up): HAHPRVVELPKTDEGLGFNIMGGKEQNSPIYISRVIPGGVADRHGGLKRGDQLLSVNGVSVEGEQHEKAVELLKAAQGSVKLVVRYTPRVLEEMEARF
# T9: LIN7C, Q9NUP9
# T9 sequence (Q9NUP9 88-185, limits assumed, looked up): T8 sequence (Q9HAP6 88-185, limits assumed, looked up) with A2S, D13E, V35I, V40I, Q65H, S79K, R89K, A96S
# T10: MPP7, Q5T2T1
# T10 sequence (Q5T2T1 134-230, limits assumed, looked up): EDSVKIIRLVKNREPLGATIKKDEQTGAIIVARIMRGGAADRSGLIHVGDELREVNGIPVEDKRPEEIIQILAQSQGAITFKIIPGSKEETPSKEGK
# T11: PDZRN3_1, Q9UPQ7
# T11 sequence (Q9UPQ7 244-349, limits assumed, looked up): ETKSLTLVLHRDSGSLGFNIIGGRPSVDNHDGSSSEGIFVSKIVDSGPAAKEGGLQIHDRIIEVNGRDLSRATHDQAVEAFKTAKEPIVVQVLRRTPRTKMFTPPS
# T12: SIPA1L2, Q9P2F8
# T12 sequence (Q9P2F8 945-1036, limits assumed, looked up): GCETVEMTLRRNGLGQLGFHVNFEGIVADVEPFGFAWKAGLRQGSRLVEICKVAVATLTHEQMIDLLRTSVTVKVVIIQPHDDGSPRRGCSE
# T13: SNTA1, Q13424
# T13 sequence (Q13424 82-180, limits assumed, looked up): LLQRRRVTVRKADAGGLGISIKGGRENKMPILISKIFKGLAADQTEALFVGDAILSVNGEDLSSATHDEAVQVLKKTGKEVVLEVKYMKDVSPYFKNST
# B1: SLC5A12, Q1EHB4 (peptide)
# chain: NNMAFETTHF
# B2: SLC22A3, O75751 (peptide)
# chain: KKTPVSRSHL
# B3: PTH1R, Q03431 (peptide)
# chain: LLQEEWETVM
# Target: T1, ARHGEF11, O15085
# Test: holdup assay
# Set-up: key: below the threshold = too weak to quantify, mostly under pKd 3.1 to 4
# Conditions: plain residues with an end cap or a label only (N-terminal biotin on a linker: ado-ado)
row,pKd,Binder
1,3.63,B1
2,3.56,B2
3,3.81,B3

# Target: CASK, O14936
# Sequence (O14936 487-570): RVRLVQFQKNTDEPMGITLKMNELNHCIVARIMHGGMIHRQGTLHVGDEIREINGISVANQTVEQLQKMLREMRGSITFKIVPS
# Test: holdup assay
# Set-up: key: below the threshold = too weak to quantify, mostly under pKd 3.1 to 4
# Conditions: plain residues with an end cap or a label only (N-terminal biotin on a linker: ado-ado)
row,pKd,Binder
1,below the threshold,B1
2,below the threshold,B2
3,below the threshold,B3

# Target: T2, DFNB31_1, Q9P202
# Test: holdup assay
# Set-up: key: below the threshold = too weak to quantify, mostly under pKd 3.1 to 4
# Conditions: plain residues with an end cap or a label only (N-terminal biotin on a linker: ado-ado)
row,pKd,Binder
1,4.01,B1
2,below the threshold,B2
3,3.84,B3

# Target: T3, DFNB31_3, Q9P202
# Test: holdup assay
# Set-up: key: below the threshold = too weak to quantify, mostly under pKd 3.1 to 4
# Conditions: plain residues with an end cap or a label only (N-terminal biotin on a linker: ado-ado)
row,pKd,Binder
1,3.78,B1
2,below the threshold,B2
3,4.17,B3

# Target: T4, DLG3_3, Q92796
# Test: holdup assay
# Set-up: key: below the threshold = too weak to quantify, mostly under pKd 3.1 to 4
# Conditions: plain residues with an end cap or a label only (N-terminal biotin on a linker: ado-ado)
row,pKd,Binder
1,below the threshold,B1
2,below the threshold,B2
3,below the threshold,B3

# Target: DLG4_2, P78352
# Sequence (P78352 155-259): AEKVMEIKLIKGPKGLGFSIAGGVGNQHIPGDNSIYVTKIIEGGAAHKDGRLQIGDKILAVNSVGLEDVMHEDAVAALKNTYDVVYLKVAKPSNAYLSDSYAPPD
# Test: holdup assay
# Set-up: key: below the threshold = too weak to quantify, mostly under pKd 3.1 to 4
# Conditions: plain residues with an end cap or a label only (N-terminal biotin on a linker: ado-ado)
row,pKd,Binder
1,below the threshold,B1
2,below the threshold,B2
3,below the threshold,B3

# Target: FRMPD4, Q14CM0
# Sequence (Q14CM0 67-160): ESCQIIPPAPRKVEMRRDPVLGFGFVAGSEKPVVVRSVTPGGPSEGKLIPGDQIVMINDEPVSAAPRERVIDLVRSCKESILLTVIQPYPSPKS
# Test: holdup assay
# Set-up: key: below the threshold = too weak to quantify, mostly under pKd 3.1 to 4
# Conditions: plain residues with an end cap or a label only (N-terminal biotin on a linker: ado-ado)
row,pKd,Binder
1,below the threshold,B1
2,3.58,B2
3,4.12,B3

# Target: GIPC2, Q8TF65
# Sequence (Q8TF65 112-203): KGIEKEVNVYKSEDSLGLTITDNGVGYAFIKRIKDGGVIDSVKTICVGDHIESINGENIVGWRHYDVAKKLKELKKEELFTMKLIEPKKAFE
# Test: holdup assay
# Set-up: key: below the threshold = too weak to quantify, mostly under pKd 3.1 to 4
# Conditions: plain residues with an end cap or a label only (N-terminal biotin on a linker: ado-ado)
row,pKd,Binder
1,below the threshold,B1
2,below the threshold,B2
3,below the threshold,B3

# Target: GOPC, Q9HD26
# Test: holdup assay
# Set-up: key: below the threshold = too weak to quantify, mostly under pKd 3.1 to 4
# Conditions: plain residues with an end cap or a label only (N-terminal biotin on a linker: ado-ado)
row,pKd,Binder
1,below the threshold,B1
2,3.81,B2
3,3.85,B3

# Target: GORASP1, Q9BQQ3
# Sequence (Q9BQQ3 1-208): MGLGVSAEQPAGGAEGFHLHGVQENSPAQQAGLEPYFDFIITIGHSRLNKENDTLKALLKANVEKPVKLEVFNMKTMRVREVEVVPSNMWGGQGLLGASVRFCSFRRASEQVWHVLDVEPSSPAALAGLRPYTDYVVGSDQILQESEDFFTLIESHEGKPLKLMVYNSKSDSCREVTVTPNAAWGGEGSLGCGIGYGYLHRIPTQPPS
# Test: holdup assay
# Set-up: key: below the threshold = too weak to quantify, mostly under pKd 3.1 to 4
# Conditions: plain residues with an end cap or a label only (N-terminal biotin on a linker: ado-ado)
row,pKd,Binder
1,below the threshold,B1
2,below the threshold,B2
3,4.31,B3

# Target: GORASP2, Q9H8Y8
# Test: holdup assay
# Set-up: key: below the threshold = too weak to quantify, mostly under pKd 3.1 to 4
# Conditions: plain residues with an end cap or a label only (N-terminal biotin on a linker: ado-ado)
row,pKd,Binder
1,below the threshold,B1
2,below the threshold,B2
3,below the threshold,B3

# Target: GRID2IP_1, A4D2P6
# Sequence (A4D2P6 1-87): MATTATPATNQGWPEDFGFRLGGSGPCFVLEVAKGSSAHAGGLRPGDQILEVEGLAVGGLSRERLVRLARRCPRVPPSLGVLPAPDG
# Test: holdup assay
# Set-up: key: below the threshold = too weak to quantify, mostly under pKd 3.1 to 4
# Conditions: plain residues with an end cap or a label only (N-terminal biotin on a linker: ado-ado)
row,pKd,Binder
1,below the threshold,B1
2,below the threshold,B2
3,below the threshold,B3

# Target: T5, GRIP1_3, Q9Y3R0
# Test: holdup assay
# Set-up: key: below the threshold = too weak to quantify, mostly under pKd 3.1 to 4
# Conditions: plain residues with an end cap or a label only (N-terminal biotin on a linker: ado-ado)
row,pKd,Binder
1,below the threshold,B1
2,below the threshold,B2
3,below the threshold,B3

# Target: T6, GRIP1_4, Q9Y3R0
# Test: holdup assay
# Set-up: key: below the threshold = too weak to quantify, mostly under pKd 3.1 to 4
# Conditions: plain residues with an end cap or a label only (N-terminal biotin on a linker: ado-ado)
row,pKd,Binder
1,below the threshold,B1
2,below the threshold,B2
3,below the threshold,B3

# Target: GRIP2_5, Q9C0E4
# Sequence (Q9C0E4 544-642): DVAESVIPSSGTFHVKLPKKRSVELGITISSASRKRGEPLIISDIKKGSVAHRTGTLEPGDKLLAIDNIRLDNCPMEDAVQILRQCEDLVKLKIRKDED
# Test: holdup assay
# Set-up: key: below the threshold = too weak to quantify, mostly under pKd 3.1 to 4
# Conditions: plain residues with an end cap or a label only (N-terminal biotin on a linker: ado-ado)
row,pKd,Binder
1,below the threshold,B1
2,below the threshold,B2
3,3.51,B3

# Target: T7, HTRA3, P83110
# Test: holdup assay
# Set-up: key: below the threshold = too weak to quantify, mostly under pKd 3.1 to 4
# Conditions: plain residues with an end cap or a label only (N-terminal biotin on a linker: ado-ado)
row,pKd,Binder
1,below the threshold,B1
2,below the threshold,B2
3,below the threshold,B3

# Target: Inadl_2, Q8NI35
# Sequence (Q8NI35 238-335): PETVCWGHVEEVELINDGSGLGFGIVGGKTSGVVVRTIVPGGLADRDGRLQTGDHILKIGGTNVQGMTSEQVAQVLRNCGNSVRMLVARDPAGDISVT
# Test: holdup assay
# Set-up: key: below the threshold = too weak to quantify, mostly under pKd 3.1 to 4
# Conditions: plain residues with an end cap or a label only (N-terminal biotin on a linker: ado-ado)
row,pKd,Binder
1,below the threshold,B1
2,below the threshold,B2
3,below the threshold,B3

# Target: T8, LIN7B, Q9HAP6
# Test: holdup assay
# Set-up: key: below the threshold = too weak to quantify, mostly under pKd 3.1 to 4
# Conditions: plain residues with an end cap or a label only (N-terminal biotin on a linker: ado-ado)
row,pKd,Binder
1,3.62,B1
2,below the threshold,B2
3,below the threshold,B3

# Target: T9, LIN7C, Q9NUP9
# Test: holdup assay
# Set-up: key: below the threshold = too weak to quantify, mostly under pKd 3.1 to 4
# Conditions: plain residues with an end cap or a label only (N-terminal biotin on a linker: ado-ado)
row,pKd,Binder
1,below the threshold,B1
2,below the threshold,B2
3,below the threshold,B3

# Target: MAGI2_4, Q86UL8
# Sequence (Q86UL8 772-865): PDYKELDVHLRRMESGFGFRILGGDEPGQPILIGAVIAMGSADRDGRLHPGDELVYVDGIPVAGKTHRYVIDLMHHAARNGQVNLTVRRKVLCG
# Test: holdup assay
# Set-up: key: below the threshold = too weak to quantify, mostly under pKd 3.1 to 4
# Conditions: plain residues with an end cap or a label only (N-terminal biotin on a linker: ado-ado)
row,pKd,Binder
1,below the threshold,B1
2,below the threshold,B2
3,below the threshold,B3

# Target: T10, MPP7, Q5T2T1
# Test: holdup assay
# Set-up: key: below the threshold = too weak to quantify, mostly under pKd 3.1 to 4
# Conditions: plain residues with an end cap or a label only (N-terminal biotin on a linker: ado-ado)
row,pKd,Binder
1,below the threshold,B1
2,below the threshold,B2
3,below the threshold,B3

# Target: NHERF4_2, Q86UT5
# Sequence (Q86UT5 220-308): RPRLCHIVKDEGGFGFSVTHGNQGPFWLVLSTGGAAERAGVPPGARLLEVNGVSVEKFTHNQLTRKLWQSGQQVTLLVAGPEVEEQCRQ
# Test: holdup assay
# Set-up: key: below the threshold = too weak to quantify, mostly under pKd 3.1 to 4
# Conditions: plain residues with an end cap or a label only (N-terminal biotin on a linker: ado-ado)
row,pKd,Binder
1,below the threshold,B1
2,below the threshold,B2
3,below the threshold,B3

# Target: T11, PDZRN3_1, Q9UPQ7
# Test: holdup assay
# Set-up: key: below the threshold = too weak to quantify, mostly under pKd 3.1 to 4
# Conditions: plain residues with an end cap or a label only (N-terminal biotin on a linker: ado-ado)
row,pKd,Binder
1,below the threshold,B1
2,below the threshold,B2
3,3.83,B3

# Target: T12, SIPA1L2, Q9P2F8
# Test: holdup assay
# Set-up: key: below the threshold = too weak to quantify, mostly under pKd 3.1 to 4
# Conditions: plain residues with an end cap or a label only (N-terminal biotin on a linker: ado-ado)
row,pKd,Binder
1,below the threshold,B1
2,3.53,B2
3,below the threshold,B3

# Target: T13, SNTA1, Q13424
# Test: holdup assay
# Set-up: key: below the threshold = too weak to quantify, mostly under pKd 3.1 to 4
# Conditions: plain residues with an end cap or a label only (N-terminal biotin on a linker: ado-ado)
row,pKd,Binder
1,below the threshold,B1
2,3.53,B2
3,4.09,B3

# From article PMC9482650, “Quantitative fragmentomics allow affinity mapping of interactomes” (Nature Communications, 2022)
